The Kd is the constant that tells how readily two partners part at equilibrium. By koff is commonly meant the first-order rate constant of dissociation. One may read the kon as the rate constant with which the complex forms. High values mean fast association, low ones slow association. One may read the EC50 as the concentration needed to bring the measured effect to its halfway point. For orientation: IC50 means the concentration that gives 50% inhibition. A low value points to greater potency in that assay.

Results on 9 molecules are retold here after patent US20210163599A1 (AVACTA LIFE SCIENCES, published 2021).

The target in experiment [1] is T1, huPD-L1-Fc (R&D Systems) (human, UniProt Q9NZQ7 19-239).
T1 construct: Bought from R&D Systems; also called hPDL1-Fc; human PD-L1 Fc antigen
The experiment can be described thus: Biacore. (Surface plasmon resonance follows binding to a sensor surface in real time, without labels.)

The target in experiment [2] is T1, huPD-L1-Fc (R&D Systems). The experiment can be described thus: Biacore (target not named on the sheet; PD-L1 by the example).
In experiment [3] the target is T2, huPD-L1 on H441 cells (human, UniProt Q9NZQ7 19-290).
T2 construct: whole, on cells; also called H441 cells (expressing huPD-L1)
The experiment can be described thus: flow cytometry, % of positive H441 cells (human lung adenocarcinoma cells expressing PD-L1). The method, then:
The binding affinity of AVA04 Affimer polypeptides was determined using Flow cytometry on Human lung adenocarcinoma cell line. […] Cells were collected by centrifugation at 300 rpm for 5 min. The cells were resuspended in PBS and 50000 cells per wells were dispatched in a round bottom 96 well plate. Cells were washed with PBS. Affimer and controls were diluted in staining buffer (R&D) in duplicate and added on cells for staining for approximately 60 min at 4±1° c. Cells were washed and the secondary anti-Cystatin A (R&D) was diluted 1:15 in staining buffer (R&D) and added on cells for staining for approximately 40 min at 4±1° c. Cells were washed and the detection antibody A488 anti-Goat (Biolegend) was diluted 1:100 in staining buffer (R&D) and added on cells for staining for approximately 30 min at 4±1° c. Finally, cells were washed, live and dead cells were stained using L/D stain Zombie Aqua (Biolegend) diluted in staining buffer for 10 min at 4±1° c. Cells were washed and fixation buffer (R&D) was added to each well for 10 min at 4±1° C. then PBS with EDTA (Lonza) was added prior reading the plate on the flow cytometer (Guava 12 HT, Millipore). Dead cells were excluded and the fluorescent Green channel (488 nm/525/30) was acquired. Results were analyzed using Incyte and data were plotted using graphpad.
(In general: Flow cytometry measures light scatter and fluorescence of single cells or particles in a stream.)

The target of experiment [4] is T1, huPD-L1-Fc (R&D Systems). The experiment in a line: Biacore T200, PD-L1-Fc immobilised on CM5, Affimer as analyte, 1:1 Langmuir fit. The method, then: The concentration titration of Affimer monomer was run as analyte with an association time of 150 seconds, followed by a dissociation time of 300 seconds at a flow rate of 30 μl/min. […] The data blank was subtracted and fit to a 1:1 Langmuir binding model (BIAcore evaluation software; GE) to calculate an apparent KD value.

Experiment [5] deals with T1, huPD-L1-Fc (R&D Systems). The experiment in a line: competition ELISA: hu PD-1-Fc coated, binder preincubated with 30 ng/ml huPD-L1-Fc; blocked ligand PD-1. How it is done: Plates were washed 2 times with 150 μl of washing buffer (PBS, Tween 20 0.1%) with a plate washer and saturated with Casein 5% (Sigma) in PBS for 90 minutes at room temperature (25±1° C.) Plates were washed as described previously. […] The reaction was stopped using an acidic solution and plates were read at 450-630 nm. The IC 50 was then calculated using the interpolated non-linear four-parameters standard curve.
For orientation: An ELISA detects its analyte on a solid surface through an enzyme-linked reagent.

T2 sequence (Q9NZQ7 19-290): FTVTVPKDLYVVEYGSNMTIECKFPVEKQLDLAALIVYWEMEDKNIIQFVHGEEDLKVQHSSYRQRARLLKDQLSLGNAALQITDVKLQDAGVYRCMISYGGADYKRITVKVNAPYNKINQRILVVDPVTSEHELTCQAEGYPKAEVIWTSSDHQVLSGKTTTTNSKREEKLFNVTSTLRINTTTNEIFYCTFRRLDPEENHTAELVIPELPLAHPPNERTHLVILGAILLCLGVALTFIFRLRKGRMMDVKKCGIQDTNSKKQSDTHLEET
T1 sequence (Q9NZQ7 19-239 limits assumed): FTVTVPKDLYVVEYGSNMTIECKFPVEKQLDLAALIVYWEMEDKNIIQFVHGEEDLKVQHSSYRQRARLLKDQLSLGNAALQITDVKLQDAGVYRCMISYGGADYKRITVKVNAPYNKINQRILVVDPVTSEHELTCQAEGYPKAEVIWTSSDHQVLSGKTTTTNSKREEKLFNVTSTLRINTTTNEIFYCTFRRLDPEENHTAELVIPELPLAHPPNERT

B1: AVA04-261 BN (designed binder)
chain: MIPRGLSEAKPATPEIQEIVDKVKPQLEEKTNETYGKLEAVQYKTQVLAHAYGPRDWDSTNYYIKVRAGDNKYMHLKVFNGPPADHVLEEAADRVLTGYQVDKNKDDELTGFGGGGSGGGGSGGGGSGGGGSEPKSCDKTHTCPPCPHHHHHH
notes: Affimer - (G4S)4 - human IgG1 hinge - His; dimerises through the hinge cysteines
In experiment [1], B1 came in with a Kd of 0.0599 nM. In addition, in experiment [2], the koff came out at 0.000156 s⁻¹ and the on-rate (kon) was 2.61e+06 M⁻¹ s⁻¹.

B2: AVA04-228 (designed binder)
Affimer polypeptide: MIPRGLSEAKPATPEIQEIVDKVKPQLEEKTNETYGKLEAVQYKTQVLAKPYGPRDWDSTNYYIKVRAGDNKYMHLKVFNGPEPQLDTSPIADRVLTGYQVDKNKDDELTGFAAAGHHHHHH
notes: also called AVA04 clone 228
In experiment [3], B2 came in with an EC50 of 0.18 nM.

B3: AVA04-261 (designed binder)
chain: MIPRGLSEAKPATPEIQEIVDKVKPQLEEKTNETYGKLEAVQYKTQVLAHAYGPRDWDSTNYYIKVRAGDNKYMHLKVFNGPPADHVLEEAADRVLTGYQVDKNKDDELTGFAAAGHHHHHH
Molecule B3 displayed an EC50 in experiment [3] of 0.043 nM.

B4: AVA04-141 Monomer His (designed binder)
Affimer polypeptide: MIPRGLSEAKPATPEIQEIVDKVKPQLEEKTNETYGKLEAVQYKTQVLAAAHFPEHFWSTNYYIKVRAGDNKYMHLKVFNGPQPADMSAEFADRVLTGYQVDKNKDDELTGFAAAGHHHHHH
notes: also called Affimer monomer; AVA04 clone 141
Consider B4, for which, in experiment [4], the affinity, expressed as Kd, was 8.9 nM; the koff is 0.0251 s⁻¹; the on-rate (kon) was found to be 2.81e+06 M⁻¹ s⁻¹. Further, in experiment [5], the IC50 came out at 2.5 nM.

B5: AVA04-211 (designed binder)
Affimer polypeptide: MIPRGLSEAKPATPEIQEIVDKVKPQLEEKTNETYGKLEAVQYKTQVLAKDWGPSNWWSTNYYIKVRAGDNKYMHLKVFNGPVDDKTLSKDADRVLTGYQVDKNKDDELTGFAAAGHHHHHH
notes: also called AVA04 clone 211
B5 yielded an EC50 in experiment [3] of 0.21 nM.

B6: AVA04-227 (designed binder)
Affimer polypeptide: MIPRGLSEAKPATPEIQEIVDKVKPQLEEKTNETYGKLEAVQYKTQVLAKDHGPIAWWSTNYYIKVRAGDNKYMHLKVFNGPEDTNTDGALADRVLTGYQVDKNKDDELTGFAAAGHHHHHH
notes: also called AVA04 clone 227
The molecule B6 registered an EC50 in experiment [3] of 0.04 nM.

B7: AVA04-269 (designed binder)
Affimer polypeptide: MIPRGLSEAKPATPEIQEIVDKVKPQLEEKTNETYGKLEAVQYKTQVLAKEYGPEEWWSTNYYIKVRAGDNKYMHLKVFNGPGDYEQVLIHADRVLTGYQVDKNKDDELTGFAAAGHHHHHH
notes: also called AVA04 clone 269
In experiment [3], B7 yielded an EC50 of 0.01 nM.

B8: AVA04-231 (designed binder)
Affimer polypeptide: MIPRGLSEAKPATPEIQEIVDKVKPQLEEKTNETYGKLEAVQYKTQVLANTWFPESFWSTNYYIKVRAGDNKYMHLKVFNGPDDNQERQEHADRVLTGYQVDKNKDDELTGFAAAGHHHHHH
notes: also called AVA04 clone 231
Regarding B8, the EC50 in experiment [3] came out at 9.51 nM.

B9: AVA04-251 (designed binder)
chain: MIPRGLSEAKPATPEIQEIVDKVKPQLEEKTNETYGKLEAVQYKTQVLAREGRQDWVLSTNYYIKVRAGDNKYMHLKVFNGPWVPFPHQQLADRVLTGYQVDKNKDDELTGFAAAGHHHHHH
B9: in experiment [3], the EC50 was found to be 2.06 nM.
